Experimental findings from the supplement of paper PMC12042874 are described below.

± gives the uncertainty stated by the source.

The series in a line: amyloid nucleation score (Sup35N fusion, yeast selection) (log enrichment); library NNK1; higher = more nucleation; inactive = no reads after selection. In a few lines: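 Using DiMSum, nucleation scores were taken as the log enrichment of output over input reads, centred on the mode score of non-aggregating sequences. The input and output reads came from Illumina sequencing of plasmid inserts, with sequences under 100 input reads excluded. The yeast were psi-negative, expressed Sup35N fused to peptides of 20 random codons, were induced with 100 μM copper sulfate for 24 hours, and were grown 7 days at 30°C on medium lacking adenine and uracil.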
SAIMEVLRMDDTCLWSNWVM: the amyloid nucleation score came to 0.057 ± 0.37.
To LWVFGCCIVRMIR belongs 0.047 ± 0.74; to FWDVTPWCHSRDCAVLFSRA, -1.37 ± 2.7.
To SFTGVDHSQLNDFSATNNAS belongs 0.653 ± 0.55; to SLMRPCKCNAYCMIELITLY, “inactive”.
RAFAFTW showed an amyloid nucleation score of 2.38 ± 0.14.
In the case of GIRPNIANFSYKVHHPVLRG it was “inactive”; in that of GENPGQDYASGFLNVFKNYL, 1.01 ± 0.54; in that of HSGTSCWVGIIDV, -0.248 ± 0.28.
In the case of GGLVYRLEKDSF it was “inactive”.
Take RERSIWFSFDGCRRRRRYGG: the amyloid nucleation score was 1.41 ± 0.78.
In turn, MAVFSIDRVVPVVTGGCIAE had an amyloid nucleation score of 0.035 ± 0.46.
Substance NTLCLHDFFHGLILWLSHQA had an amyloid nucleation score of 1.01 ± 0.49.
KLWVNNQS: the amyloid nucleation score was 0.198 ± 0.57.
On to RSVMCGWDHPRDRVGAPEWL, for which the amyloid nucleation score came out at 0.439 ± 0.71.
In the case of YKKRMLSLWYYGAGIQHRAL it was 0.412 ± 0.43; in that of SVAHMVDISFVVHPVMSTGN, -1.1 ± 0.82.
In the case of GSDMCKSSVSECIKKLATIQ it was “inactive”; in that of DLFYDGCSRFLVMSKGTALV, -0.412 ± 1.2.
In the case of KSTSRPCHWIYWMWMVYPRY it was 0.445 ± 0.81; in that of VLGMCGTRYIDFF, 3.12 ± 0.085.
The substance YGNWFYIFFS yielded an amyloid nucleation score of 6.471 ± 0.054.
To MHFIRALIEFH belongs 1.88 ± 0.2.
Consider SYIDHYITKSDAVWRVSIEQ, for which the amyloid nucleation score was -0.176 ± 0.35.
Turning to RLFCGSWDNFREGE, the amyloid nucleation score was -0.063 ± 0.58.
In the case of LVWSGLHVGGHSWVGFTGVV it was 0.241 ± 0.61; in that of KWCISKSFFVYPTMMR, 0.437 ± 0.44.
To MWGTCSYSYLDSCRVTLFMR belongs 2.06 ± 0.2; to HPMITRFLAD, 0.413 ± 1.4; to KRVIAMLTLIFG, 0.534 ± 0.64.
In the case of NTVFVIDESFGVMGWLGLKQ it was 0.294 ± 0.82; in that of TVFIKLKVFAMN, 1.53 ± 0.18; in that of WGNFAVSWVFMEVNACRLRW, -0.323 ± 0.66.
As for YLIFKSFK, the amyloid nucleation score stood at 1.25 ± 0.61.
In the case of DAMHCCKTDYYIIGISGPSD it was 0.732 ± 0.68; in that of GSHSRGY, -0.289 ± 0.36; in that of RFFPDNNCMQCDATAEDTGL, -0.246 ± 1.4.
Take GIGMRGVQHSSCEVARYWGS: the amyloid nucleation score worked out at 1.12 ± 0.35.
In the case of GNPGFELWLLSMLIGA it was “inactive”; in that of LGVRRPQEISCHADHASRWL, -0.776 ± 1.3; in that of SRTFVGGLGLVYEIFIVMAV, -0.301 ± 0.59.
In the case of IKAWWMNHGRYHCLTLRVCL it was 0.713 ± 0.38; in that of CQRAFI, -0.041 ± 0.77.
As to FVVSLECTTRRVGLGALC, the amyloid nucleation score entry is “inactive”.
As for LPGTSRRASRCLFACYVDMS, the amyloid nucleation score was 0.676 ± 0.39.
As for CSLLSYK, the amyloid nucleation score is -1.63 ± 2.7.
In the case of SWIEKDHFQVGARYRMSS it was -0.376 ± 0.6; in that of RGEVHSIWTPPLHKGQEMGI, 0.048 ± 0.78.
To TRAAYLGRGREMRCIKVAFW belongs 1.31 ± 0.93; to SCVAVSNNMILPRVSGLFEG, 2.55 ± 0.15.
For the substance MGVLKWLATRLDWFKKIMCR, the amyloid nucleation score was determined as 2.3 ± 0.13.
Consider VGISCPYYLGRGIMVEARSD, for which the amyloid nucleation score was -0.006 ± 0.62.
With SIDRIRVSVHPLAFKIYLDV, the amyloid nucleation score is 0.497 ± 0.43.
The substance WYHFVSGAVPHGSNEPKEFN showed an amyloid nucleation score of -1 ± 0.9.
To WHEMKY belongs 1.46 ± 0.13.
In turn, CIYELRGLVRFWSHRVNRER yielded an amyloid nucleation score of -0.445 ± 0.45.
To AVGGDSMYSLQSGYKLILAS belongs 0.288 ± 0.35.
In the case of NWYVVYSWSEQIYREDSMGT it was -0.52 ± 0.71.
To TSPYDSNGLFAMLAELHFYS belongs 0.082 ± 0.78; to FVGGPPMIQYVVPV, 0.326 ± 0.42; to SCQSALLRILGSRVSFQARA, -0.192 ± 0.49.
As for MKQQAQPVFVWSSAGGGCES, the amyloid nucleation score is -0.606 ± 0.47.
As for CRASYGFHVQRDALDR, the amyloid nucleation score was -0.438 ± 0.75.
To TDGIAVSFTNHDVWMVDAFV belongs 0.241 ± 1.4.
To LSGFKMFIGNYITVV belongs -0.779 ± 0.78; to SKKSSRDLNSTSGRR, -0.808 ± 1.4; to QKDSTPISGWFSFYMSVPFK, “inactive”.
Regarding YVQFYGWRTWDLYWYLEWVV, the amyloid nucleation score is -1.07 ± 0.8.
In the case of NCFLCSVARNNYVLRCPSSN it was 6.07 ± 0.067; in that of WESSAAVDTCTILKMTEKVG, 0.579 ± 1.2; in that of FACYLNHAGGVSAHKYIFVT, 0.351 ± 0.37.
In the case of KLDVSLKKYLD it was 0.368 ± 0.31; in that of FCYSTI, 0.487 ± 0.81; in that of DLLQLYSDGTRGYVFFLLMK, “inactive”.
In the case of TSFLV it was -0.028 ± 0.91; in that of LDRAVHPGVVSPWSQVTRTM, 0.749 ± 0.38.
With YKYFCGYKLSVEDLLLSVYQ, the amyloid nucleation score turned out to be 0.188 ± 0.27.
In turn, HAIFCLSKLTFLGPILGSFT returned an amyloid nucleation score of 7.112 ± 0.048.
To FNVGLPLAGIISTKTD belongs -1.83 ± 2.7.
To FPLGTQDRIIRFVESQYDSM belongs -0.516 ± 1.7.
Consider TVVIDSFLCRLQNGVDLGS, for which the amyloid nucleation score entry was “inactive”.
To KITSEPTKFYMGVCPSRSEL belongs -0.112 ± 0.44; to VRSFDDLRVNVSRSRCAMAQ, -0.906 ± 0.71.
In the case of SIRSVLFVSTVDDTPPYQGF it was “inactive”.
The substance FLLLFDQFSVLMCCAQVLCL displayed an amyloid nucleation score of 4.56 ± 0.058.
To VSVGVILCSVRNKVNRGMDD belongs “inactive”; to MDGALSVEFSWGLLSKTRLC, -0.122 ± 0.74.
To PDTYRLWRWSCIFEKCCDEG belongs -0.194 ± 0.41; to PFTNQPMSPARHLFI, -1.88 ± 2.4; to LSFMMRGSIHWPLTTLRACS, 1.05 ± 0.6.
To CRQGMTLAVREPGASTSVYN belongs 0.47 ± 0.71; to TDPRNNACVFYVCYYTSCWD, 0.923 ± 0.66; to SRYSLTCRVLTWLPDNLVRR, 0.07 ± 0.42.
Take NGYQCYGILCAFVTWTVYFW: the amyloid nucleation score is 1.26 ± 0.79.
Take SGNTGPFRCARAADNSNFKG: the amyloid nucleation score was -0.922 ± 0.67.
To TQDEMVSVRNKLSCVTLE belongs 4.04 ± 0.06; to FREFWPGLYYTTPYKLSNHC, -2.14 ± 1.1; to RGQQPFVTLKRAVFKSINTD, -0.02 ± 0.41.
As to RPEISTPFMYGYFVSGVGVA, the amyloid nucleation score result was “inactive”.
In the case of CVSIQDHFRGYKALDPAWFV, the amyloid nucleation score stood at 0.805 ± 0.27.
Consider WIMRS, for which the amyloid nucleation score result is “inactive”.
To VTMVGRSLKLLMTYETFNTW belongs -0.21 ± 0.24.
As to LHVEWSASMSMFCLNHRIAA, the amyloid nucleation score was -0.172 ± 0.61.
In the case of VDLTLPASAVGNELCAREVG it was 0.155 ± 0.34; in that of GLDFCIVRACTKRYSWNQLG, 1.69 ± 0.56.
LVLQRDIGSACVDCHGVGKA showed an amyloid nucleation score of 1.17 ± 0.52.
With NPSQIELRAFRTCMMYCGS, the amyloid nucleation score result was “inactive”.
To GPLINTDELWIWSAVCCCRL belongs -0.781 ± 1.9.
To GLGFTGWF belongs 0.708 ± 0.73; to LSSTSV, 0.425 ± 0.44.
In the case of FVTIWWLYRTCIFLSTVRTT it was 1.5 ± 0.26; in that of YFVMITCFYVILL, -0.126 ± 0.2.
In turn, DILVYRTLSPCVLSCSYFSG displayed an amyloid nucleation score of -1.25 ± 0.77.
Consider GNNLHLRS, for which the amyloid nucleation score was -0.121 ± 0.66.
LVNCVVGFLTLVNFWSIHQL gave an amyloid nucleation score of 0.206 ± 0.79.
PFTCCAVVPFSVTFSRVLES: the amyloid nucleation score result is “inactive”.
In the case of FMYAQMFPTAVQDYVK, the amyloid nucleation score result is “inactive”.
In turn, SLNREYVYKRGGVREWCRYL returned an amyloid nucleation score of 0.856 ± 0.59.
In the case of WNDYAHILLKKRGGRYNLAG it was -0.907 ± 0.74; in that of EPLLHSG, “inactive”; in that of RNFPWQGFYSTCMMPHF, 0.986 ± 0.6.
In the case of NIFIFTVSHKPNY it was 7.926 ± 0.057; in that of LCTRFWDTMYLSSGYFGFLC, 1.03 ± 0.46; in that of RVRGSASMLLSLMCSFTMYE, 3.3 ± 0.14.
In the case of MVVFDRRGLSYPVS it was 0.556 ± 0.52; in that of DKTMVGTPGLTHMVVDGVE, 0.12 ± 0.84; in that of GSSRDNGQFYSFELS, 0.398 ± 0.64.
As to NWRSTLVSCLVYLPVLCCRC, the amyloid nucleation score amounted to 5.31 ± 0.058.
IVPPLSNCSFIG showed an amyloid nucleation score of -0.293 ± 0.6.
In the case of VHTVYLLVDTR it was 0.289 ± 1.2; in that of RYATSMYPL, 0.069 ± 0.56.
For the substance GEGQQSGVVSNLSGYRSNS, the amyloid nucleation score is 0.418 ± 0.51.
DRRMSTTVMGRFVWRDRYVG displayed an amyloid nucleation score of 0.526 ± 0.65.
The substance LLESFTG registered an amyloid nucleation score of -0.392 ± 0.46.
In the case of SLRVTLTGQTDLASEFQWWL, the amyloid nucleation score result was “inactive”.
In the case of GLCYNEVDAVASGESGDDRG it was -0.376 ± 0.45; in that of EPARK, “inactive”.
To VGELFCGWSRRERYPVWSLV belongs 0.255 ± 1.4.
